# Experimental data from US20200317768A1 (published 2020).
# T1: human FcγRIIaH extracellular domain with C-terminal His-tag (human, UniProt P12318 34-217)
# T1 construct: also called human FcgRIIaH; FcγRIIa (type H)
# T1 sequence: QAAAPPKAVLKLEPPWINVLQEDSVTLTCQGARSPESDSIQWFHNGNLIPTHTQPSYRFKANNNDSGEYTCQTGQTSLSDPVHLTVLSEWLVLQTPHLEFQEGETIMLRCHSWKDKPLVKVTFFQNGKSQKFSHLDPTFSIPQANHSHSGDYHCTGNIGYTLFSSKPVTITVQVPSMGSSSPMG
# Biological target: T1, human FcγRIIaH extracellular domain …
# Test: SPR (BIACORE); KD of SG1 / KD of variant;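 note: relative to parent M103205H795-SG1 carrying the SG1 human heavy chain constant region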
row,Binder,KD fold (SG1 = 1) [fold]
1,"M103205H795-MY520/M103202L889-SK1 (antibody, human IgG1, kappa, Substitutions introduced into M103205H795-SG1, expressed with M103202L889-SK1 as light chain; EU numbering) heavy: QVTLKESGPVLVKPTETLTLTCTVSGIDLSHDDISWVRQAPGKGLEWVGIISYAGSTYYASWAKGRLTISKDTSKNQVVLTMTNMDPVDTATYYCARGVPAYSHGGDLWGQGTLVTVSSASTKGPSVFPLAPSSKSTSGGTAALGCLVKDYFPEPVTVSWNSGALTSGVHTFPAVLQSSGLYSLSSVVTVPSSSLGTQTYICNVNHKPSNTKVDKKVEPKSCDKTHTCPPCPADELLTGPVVFLFPPKPKDTLMISRTPEVTCVVVDVSDEDPEVKFNWYVDGVEVHNAKTKPREELYNSTYRVVSVLTVLHQDWLNGKEYKCKVSNKALPKPIEKTISKAKGQPREPQVYTLPPSREEMTKNQVSLTCLVKGFYPSDIAVEWESNGQPENNYKTTPPVLDSDGSFFLYSKLTVDKSRWQQGNVFSCSVMHEALHNHYTQKSLSLSP light: DIVMTQSPATLSLSPGERATLSCTSSQSVYHANWLSWFQQKPGQPPKLLIYWASTLAYGVPSRFSGSGSGTDFTLTISSLQPEDAATYYCAGGYGGGRYAFGQGTKVEIKRTVAAPSVFIFPPSDEQLKSGTASVVCLLNNFYPREAKVQWKVDNALQSGNSQESVTEQDSKDSTYSLSSTLTLSKADYEKHKVYACEVTHQGLSSPVTKSFNRGEC",1.4
2,"M103205H795-MY526/M103202L889-SK1 (antibody, human IgG1, kappa, Substitutions introduced into M103205H795-SG1, expressed with M103202L889-SK1 as light chain; EU numbering) heavy: QVTLKESGPVLVKPTETLTLTCTVSGIDLSHDDISWVRQAPGKGLEWVGIISYAGSTYYASWAKGRLTISKDTSKNQVVLTMTNMDPVDTATYYCARGVPAYSHGGDLWGQGTLVTVSSASTKGPSVFPLAPSSKSTSGGTAALGCLVKDYFPEPVTVSWNSGALTSGVHTFPAVLQSSGLYSLSSVVTVPSSSLGTQTYICNVNHKPSNTKVDKKVEPKSCDKTHTCPPCPTPELLTGPVVFLFPPKPKDTLMISRTPEVTCVVVDVSDEDPEVKFNWYVDGVEVHNAKTKPREELYNSTYRVVSVLTVLHQDWLNGKEYKCKVSNKALPKPIEKTISKAKGQPREPQVYTLPPSREEMTKNQVSLTCLVKGFYPSDIAVEWESNGQPENNYKTTPPVLDSDGSFFLYSKLTVDKSRWQQGNVFSCSVMHEALHNHYTQKSLSLSP light: DIVMTQSPATLSLSPGERATLSCTSSQSVYHANWLSWFQQKPGQPPKLLIYWASTLAYGVPSRFSGSGSGTDFTLTISSLQPEDAATYYCAGGYGGGRYAFGQGTKVEIKRTVAAPSVFIFPPSDEQLKSGTASVVCLLNNFYPREAKVQWKVDNALQSGNSQESVTEQDSKDSTYSLSSTLTLSKADYEKHKVYACEVTHQGLSSPVTKSFNRGEC",4.1
3,"M103205H795-MY523/M103202L889-SK1 (antibody, human IgG1, kappa, Substitutions introduced into M103205H795-SG1, expressed with M103202L889-SK1 as light chain; EU numbering) heavy: QVTLKESGPVLVKPTETLTLTCTVSGIDLSHDDISWVRQAPGKGLEWVGIISYAGSTYYASWAKGRLTISKDTSKNQVVLTMTNMDPVDTATYYCARGVPAYSHGGDLWGQGTLVTVSSASTKGPSVFPLAPSSKSTSGGTAALGCLVKDYFPEPVTVSWNSGALTSGVHTFPAVLQSSGLYSLSSVVTVPSSSLGTQTYICNVNHKPSNTKVDKKVEPKSCDKTHTCPPCPGPELLTGPVVFLFPPKPKDTLMISRTPEVTCVVVDVSDEDPEVKFNWYVDGVEVHNAKTKPREELYNSTYRVVSVLTVLHQDWLNGKEYKCKVSNKALPKPIEKTISKAKGQPREPQVYTLPPSREEMTKNQVSLTCLVKGFYPSDIAVEWESNGQPENNYKTTPPVLDSDGSFFLYSKLTVDKSRWQQGNVFSCSVMHEALHNHYTQKSLSLSP light: DIVMTQSPATLSLSPGERATLSCTSSQSVYHANWLSWFQQKPGQPPKLLIYWASTLAYGVPSRFSGSGSGTDFTLTISSLQPEDAATYYCAGGYGGGRYAFGQGTKVEIKRTVAAPSVFIFPPSDEQLKSGTASVVCLLNNFYPREAKVQWKVDNALQSGNSQESVTEQDSKDSTYSLSSTLTLSKADYEKHKVYACEVTHQGLSSPVTKSFNRGEC",3.6
4,"M103205H795-MY521/M103202L889-SK1 (antibody, human IgG1, kappa, Substitutions introduced into M103205H795-SG1, expressed with M103202L889-SK1 as light chain; EU numbering) heavy: QVTLKESGPVLVKPTETLTLTCTVSGIDLSHDDISWVRQAPGKGLEWVGIISYAGSTYYASWAKGRLTISKDTSKNQVVLTMTNMDPVDTATYYCARGVPAYSHGGDLWGQGTLVTVSSASTKGPSVFPLAPSSKSTSGGTAALGCLVKDYFPEPVTVSWNSGALTSGVHTFPAVLQSSGLYSLSSVVTVPSSSLGTQTYICNVNHKPSNTKVDKKVEPKSCDKTHTCPPCPADELLTGPSVFLFPPKPKDTLMISRTPEVTCVVVDVSDEDPEVKFNWYVDGVEVHNAKTKPREELYNSTYRVVSVLTVLHQDWLNGKEYKCKVSNKALPKPIEKTISKAKGQPREPQVYTLPPSREEMTKNQVSLTCLVKGFYPSDIAVEWESNGQPENNYKTTPPVLDSDGSFFLYSKLTVDKSRWQQGNVFSCSVMHEALHNHYTQKSLSLSP light: DIVMTQSPATLSLSPGERATLSCTSSQSVYHANWLSWFQQKPGQPPKLLIYWASTLAYGVPSRFSGSGSGTDFTLTISSLQPEDAATYYCAGGYGGGRYAFGQGTKVEIKRTVAAPSVFIFPPSDEQLKSGTASVVCLLNNFYPREAKVQWKVDNALQSGNSQESVTEQDSKDSTYSLSSTLTLSKADYEKHKVYACEVTHQGLSSPVTKSFNRGEC",2.4
5,"M103205H795-MY524/M103202L889-SK1 (antibody, human IgG1, kappa, Substitutions introduced into M103205H795-SG1, expressed with M103202L889-SK1 as light chain; EU numbering) heavy: QVTLKESGPVLVKPTETLTLTCTVSGIDLSHDDISWVRQAPGKGLEWVGIISYAGSTYYASWAKGRLTISKDTSKNQVVLTMTNMDPVDTATYYCARGVPAYSHGGDLWGQGTLVTVSSASTKGPSVFPLAPSSKSTSGGTAALGCLVKDYFPEPVTVSWNSGALTSGVHTFPAVLQSSGLYSLSSVVTVPSSSLGTQTYICNVNHKPSNTKVDKKVEPKSCDKTHTCPPCPGPELLTGPSVFLFPPKPKDTLMISRTPEVTCVVVDVSDEDPEVKFNWYVDGVEVHNAKTKPREELYNSTYRVVSVLTVLHQDWLNGKEYKCKVSNKALPKPIEKTISKAKGQPREPQVYTLPPSREEMTKNQVSLTCLVKGFYPSDIAVEWESNGQPENNYKTTPPVLDSDGSFFLYSKLTVDKSRWQQGNVFSCSVMHEALHNHYTQKSLSLSP light: DIVMTQSPATLSLSPGERATLSCTSSQSVYHANWLSWFQQKPGQPPKLLIYWASTLAYGVPSRFSGSGSGTDFTLTISSLQPEDAATYYCAGGYGGGRYAFGQGTKVEIKRTVAAPSVFIFPPSDEQLKSGTASVVCLLNNFYPREAKVQWKVDNALQSGNSQESVTEQDSKDSTYSLSSTLTLSKADYEKHKVYACEVTHQGLSSPVTKSFNRGEC",6.3

# The remaining lines, values ahead:
row,KD fold (SG1 = 1) [fold],Binder
1,3.3,"M103205H795-MY525/M103202L889-SK1 (antibody, human IgG1, kappa, Substitutions introduced into M103205H795-SG1, expressed with M103202L889-SK1 as light chain; EU numbering) heavy: QVTLKESGPVLVKPTETLTLTCTVSGIDLSHDDISWVRQAPGKGLEWVGIISYAGSTYYASWAKGRLTISKDTSKNQVVLTMTNMDPVDTATYYCARGVPAYSHGGDLWGQGTLVTVSSASTKGPSVFPLAPSSKSTSGGTAALGCLVKDYFPEPVTVSWNSGALTSGVHTFPAVLQSSGLYSLSSVVTVPSSSLGTQTYICNVNHKPSNTKVDKKVEPKSCDKTHTCPPCPTPELLTGPVVFLFPPKPKDTLMISRTPEVTCVVVDVSDEDPEVKFNWYVDGVEVHNAKTKPREEQYNSTYRVVSVLTVLHQDWLNGKEYKCKVSNKALPKPIEKTISKAKGQPREPQVYTLPPSREEMTKNQVSLTCLVKGFYPSDIAVEWESNGQPENNYKTTPPVLDSDGSFFLYSKLTVDKSRWQQGNVFSCSVMHEALHNHYTQKSLSLSP light: DIVMTQSPATLSLSPGERATLSCTSSQSVYHANWLSWFQQKPGQPPKLLIYWASTLAYGVPSRFSGSGSGTDFTLTISSLQPEDAATYYCAGGYGGGRYAFGQGTKVEIKRTVAAPSVFIFPPSDEQLKSGTASVVCLLNNFYPREAKVQWKVDNALQSGNSQESVTEQDSKDSTYSLSSTLTLSKADYEKHKVYACEVTHQGLSSPVTKSFNRGEC"
2,6.3,"M103205H795-MY527/M103202L889-SK1 (antibody, human IgG1, kappa, Substitutions introduced into M103205H795-SG1, expressed with M103202L889-SK1 as light chain; EU numbering) heavy: QVTLKESGPVLVKPTETLTLTCTVSGIDLSHDDISWVRQAPGKGLEWVGIISYAGSTYYASWAKGRLTISKDTSKNQVVLTMTNMDPVDTATYYCARGVPAYSHGGDLWGQGTLVTVSSASTKGPSVFPLAPSSKSTSGGTAALGCLVKDYFPEPVTVSWNSGALTSGVHTFPAVLQSSGLYSLSSVVTVPSSSLGTQTYICNVNHKPSNTKVDKKVEPKSCDKTHTCPPCPTPELLTGPSVFLFPPKPKDTLMISRTPEVTCVVVDVSDEDPEVKFNWYVDGVEVHNAKTKPREELYNSTYRVVSVLTVLHQDWLNGKEYKCKVSNKALPKPIEKTISKAKGQPREPQVYTLPPSREEMTKNQVSLTCLVKGFYPSDIAVEWESNGQPENNYKTTPPVLDSDGSFFLYSKLTVDKSRWQQGNVFSCSVMHEALHNHYTQKSLSLSP light: DIVMTQSPATLSLSPGERATLSCTSSQSVYHANWLSWFQQKPGQPPKLLIYWASTLAYGVPSRFSGSGSGTDFTLTISSLQPEDAATYYCAGGYGGGRYAFGQGTKVEIKRTVAAPSVFIFPPSDEQLKSGTASVVCLLNNFYPREAKVQWKVDNALQSGNSQESVTEQDSKDSTYSLSSTLTLSKADYEKHKVYACEVTHQGLSSPVTKSFNRGEC"
3,2.9,"M103205H795-MY522/M103202L889-SK1 (antibody, human IgG1, kappa, Substitutions introduced into M103205H795-SG1, expressed with M103202L889-SK1 as light chain; EU numbering) heavy: QVTLKESGPVLVKPTETLTLTCTVSGIDLSHDDISWVRQAPGKGLEWVGIISYAGSTYYASWAKGRLTISKDTSKNQVVLTMTNMDPVDTATYYCARGVPAYSHGGDLWGQGTLVTVSSASTKGPSVFPLAPSSKSTSGGTAALGCLVKDYFPEPVTVSWNSGALTSGVHTFPAVLQSSGLYSLSSVVTVPSSSLGTQTYICNVNHKPSNTKVDKKVEPKSCDKTHTCPPCPGPELLTGPVVFLFPPKPKDTLMISRTPEVTCVVVDVSDEDPEVKFNWYVDGVEVHNAKTKPREEQYNSTYRVVSVLTVLHQDWLNGKEYKCKVSNKALPKPIEKTISKAKGQPREPQVYTLPPSREEMTKNQVSLTCLVKGFYPSDIAVEWESNGQPENNYKTTPPVLDSDGSFFLYSKLTVDKSRWQQGNVFSCSVMHEALHNHYTQKSLSLSP light: DIVMTQSPATLSLSPGERATLSCTSSQSVYHANWLSWFQQKPGQPPKLLIYWASTLAYGVPSRFSGSGSGTDFTLTISSLQPEDAATYYCAGGYGGGRYAFGQGTKVEIKRTVAAPSVFIFPPSDEQLKSGTASVVCLLNNFYPREAKVQWKVDNALQSGNSQESVTEQDSKDSTYSLSSTLTLSKADYEKHKVYACEVTHQGLSSPVTKSFNRGEC"
